B1: MICOS complex subunit MIC19 (Saccharomyces cerevisiae), P43594 (parent)
chain: MGSNTSKVGAGAEKQQVYTPLTQIDFSQSLVSQLDSSKESDYVTKQNAEKFIEKKVSQRLSNLEVETLKKFEDTLNNSLLSDDDKDAVDGISSSSLNNQIESLNKKLTLFDQLELQKLEKYGGAKGKSDKKTDNGSISIKAKLTECLLANKGKPLNCYEEMEEFKKLVMG
partner: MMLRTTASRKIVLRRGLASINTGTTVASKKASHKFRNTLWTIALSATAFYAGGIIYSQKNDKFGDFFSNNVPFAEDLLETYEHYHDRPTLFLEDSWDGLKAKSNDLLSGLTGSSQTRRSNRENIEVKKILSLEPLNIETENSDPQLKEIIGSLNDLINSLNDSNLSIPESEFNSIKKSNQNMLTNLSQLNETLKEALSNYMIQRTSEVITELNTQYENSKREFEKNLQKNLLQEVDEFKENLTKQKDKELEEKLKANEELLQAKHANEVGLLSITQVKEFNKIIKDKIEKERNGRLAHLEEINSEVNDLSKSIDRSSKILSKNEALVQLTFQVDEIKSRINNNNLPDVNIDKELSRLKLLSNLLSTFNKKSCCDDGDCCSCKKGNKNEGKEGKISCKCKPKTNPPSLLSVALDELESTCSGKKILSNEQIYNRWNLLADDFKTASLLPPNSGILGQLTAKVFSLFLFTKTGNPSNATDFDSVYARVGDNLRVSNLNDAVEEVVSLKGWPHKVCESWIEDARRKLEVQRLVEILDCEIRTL

Variants of B1 are the subject of this test. Conditions: with mic60_yeast MIC60, P36112.
MGSNTSKVGAGAEKQQVYTPLTQIDFSQSLVSQLDSSKESDYVTKQNAEKFIEKKVSQRLSNLEVETLKKFEDTLNNSLLSDDDKDAVDGISSSSLNNQIESLNKKLTLFDQLELQKLEKYGGAKGKSDKKTDNGSISIKAKLTECLLANKGKPLNSYEEMEEFKKLVMG: the “effect of a mutation on the interaction” value is listed as “decreasing interaction strength”.

On to MGSNTSKVGAGAEKQQVYTPLTQIDFSQSLVSQLDSSKESDYVTKQNAEKFIEKKVSQRLSNLEVETLKKFEDTLNNSLLSDDDKDAVDGISSSSLNNQIESLNKKLTLFDQLELQKLEKYGGAKGKSDKKTDNGSISIKAKLTESLLANKGKPLNCYEEMEEFKKLVMG, for which the “effect of a mutation on the interaction” value is “with no effect”.

(Values after IntAct's records for PubMed 26416881.)
